In assay [1] the target is muscle-type nicotinic acetylcholine receptor from the electric organ of Torpedo californica (Torpedo californica (endogenous in electric organ)) (UniProt P02710). Nature of the assay: radioligand binding.
Assay [2] shares this target. Nature of the assay: radioligand binding. The source holds these as a separate data set.

Where two headings read alike, the source gives them in different places.

UniProt P02710, sequence (P02710 25-461 limits assumed, chain 1 of 4): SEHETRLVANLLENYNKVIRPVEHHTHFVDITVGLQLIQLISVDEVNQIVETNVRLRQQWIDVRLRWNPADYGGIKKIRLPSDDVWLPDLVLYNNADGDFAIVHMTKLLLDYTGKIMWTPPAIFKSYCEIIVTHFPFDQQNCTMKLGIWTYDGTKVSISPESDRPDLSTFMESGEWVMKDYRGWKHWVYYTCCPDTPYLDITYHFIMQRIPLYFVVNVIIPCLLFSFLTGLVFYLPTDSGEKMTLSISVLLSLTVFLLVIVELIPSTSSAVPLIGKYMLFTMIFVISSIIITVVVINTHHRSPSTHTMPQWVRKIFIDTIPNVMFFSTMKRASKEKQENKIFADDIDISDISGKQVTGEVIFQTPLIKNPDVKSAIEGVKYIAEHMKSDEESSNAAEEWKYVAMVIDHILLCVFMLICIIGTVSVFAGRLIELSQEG
UniProt P02710, sequence (P02712 25-493 limits assumed, chain 2 of 4, further chain): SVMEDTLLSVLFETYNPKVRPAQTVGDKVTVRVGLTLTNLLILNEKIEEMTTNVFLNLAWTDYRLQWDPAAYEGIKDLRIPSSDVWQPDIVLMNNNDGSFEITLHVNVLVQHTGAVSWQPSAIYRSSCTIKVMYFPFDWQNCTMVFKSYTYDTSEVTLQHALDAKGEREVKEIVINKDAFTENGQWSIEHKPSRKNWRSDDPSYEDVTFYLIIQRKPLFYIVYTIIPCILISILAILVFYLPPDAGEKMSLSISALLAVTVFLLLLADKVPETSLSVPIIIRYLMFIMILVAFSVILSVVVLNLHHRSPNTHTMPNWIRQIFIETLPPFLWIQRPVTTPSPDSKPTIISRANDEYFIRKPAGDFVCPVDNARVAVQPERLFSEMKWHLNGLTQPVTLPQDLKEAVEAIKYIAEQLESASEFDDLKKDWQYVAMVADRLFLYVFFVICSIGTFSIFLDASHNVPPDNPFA
UniProt P02710, sequence (P02714 18-506 limits assumed, chain 3 of 4, further chain): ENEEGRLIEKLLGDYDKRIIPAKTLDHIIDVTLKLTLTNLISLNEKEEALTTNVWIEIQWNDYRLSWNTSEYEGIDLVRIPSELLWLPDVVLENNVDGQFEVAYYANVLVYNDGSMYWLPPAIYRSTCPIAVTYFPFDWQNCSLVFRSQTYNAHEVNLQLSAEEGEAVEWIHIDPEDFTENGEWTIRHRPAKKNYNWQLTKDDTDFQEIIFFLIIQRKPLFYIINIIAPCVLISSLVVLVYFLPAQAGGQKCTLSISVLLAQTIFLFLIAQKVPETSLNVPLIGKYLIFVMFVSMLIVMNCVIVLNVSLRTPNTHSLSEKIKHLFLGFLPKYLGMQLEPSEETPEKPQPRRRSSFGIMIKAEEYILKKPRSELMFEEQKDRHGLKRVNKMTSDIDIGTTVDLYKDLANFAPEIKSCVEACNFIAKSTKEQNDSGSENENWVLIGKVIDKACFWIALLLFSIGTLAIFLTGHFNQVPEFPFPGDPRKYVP
UniProt P02710, sequence (P02718 22-522 limits assumed, chain 4 of 4, further chain): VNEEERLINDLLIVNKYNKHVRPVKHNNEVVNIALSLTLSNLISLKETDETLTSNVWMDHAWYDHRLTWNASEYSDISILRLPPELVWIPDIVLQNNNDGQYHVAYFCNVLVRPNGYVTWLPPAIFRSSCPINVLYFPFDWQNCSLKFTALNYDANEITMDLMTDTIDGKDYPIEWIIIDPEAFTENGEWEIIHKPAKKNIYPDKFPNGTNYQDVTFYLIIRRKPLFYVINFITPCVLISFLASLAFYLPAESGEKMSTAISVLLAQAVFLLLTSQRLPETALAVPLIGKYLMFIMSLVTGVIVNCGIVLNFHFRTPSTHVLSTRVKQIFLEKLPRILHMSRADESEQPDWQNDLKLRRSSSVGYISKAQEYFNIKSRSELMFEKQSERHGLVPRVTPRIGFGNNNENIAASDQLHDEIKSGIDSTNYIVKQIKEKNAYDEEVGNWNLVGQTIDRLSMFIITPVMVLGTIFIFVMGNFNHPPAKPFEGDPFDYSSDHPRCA

B1: recombinant SLURP-1 with one additional N-terminal Met residue (natural protein)
chain: MLKCYTCKEPMTSASCRTITRCKPEDTACMTTLVTVEAEYPFNQSPVVTRSCSSSCVATDPDSIGAAHLIFCCFRDLCNSEL
In the case of B1, the IC50 (as a rule, the concentration that inhibits the measured activity by half) in assay [1] was 9.55 µM; in assay [2], 10.7 µM.

B2: synthetic SLURP-1 (natural protein)
chain: LKCYTCKEPMTSASCRTITRCKPEDTACMTTLVTVEAEYPFNQSPVVTRSCSSSCVATDPDSIGAAHLIFCCFRDLCNSEL
Take B2: the IC50 in assay [1] worked out at 3.92 µM; in assay [2] it was 4.05 µM.

(Values after paper PMC10707033.)
